In test [1] the target is monoclonal antibody mAB 198. The experiment in a line: peptide microarray, fluorescence, cyclic peptide.
Test [2] has as its target monoclonal antibody mAB 198. Description: peptide microarray, fluorescence, linear peptide.

Where no end group is shown, it is not given here.

LRLNPADYG (also: cyclic peptide, mode of cyclisation not given here) returned a relative signal [%] in test [1] of 28.6%. Still for that read-out and setting: the value for SLRINPADY (also: cyclic peptide, mode of cyclisation not given here) was 28%. In test [2], VDYNLKFNP had a relative signal [%] of 7.6%.

In test [1], RFNPADY (also: cyclic peptide, ring type and places not given here) [RFNPADY, cyclic mimotope] came in with a relative signal [%] of 37.5%. For the molecule HSLRWNPAD, the relative signal [%] in test [2] was 6.6%.

For RLRYNPADY, in test [2], the relative signal [%] was 6.5%. For the molecule LRFNPAD [LRFNPAD, linear mimotope], the relative signal [%] in test [2] amounted to 37.1%. SLRVNPADY (also: cyclic peptide, mode of cyclisation not given here) registered a relative signal [%] in test [1] of 26.5%.

Molecule VRHRWNPAD gave a relative signal [%] in test [2] of 8.1%. On to DVRLRINPADY, for which, in test [2], the relative signal [%] came to 8.5%. Take SLRVNPADY: the relative signal [%] in test [2] stood at 6.7%. On to YNLKYNP [YNLKYNP, linear mimotope], for which the relative signal [%] in test [2] was found to be 8.3%. CNLKYNP [CNLKYNP, linear mimotope] yielded a relative signal [%] in test [2] of 6.7%.

GNPADYGGI registered a relative signal [%] in test [2] of 8.9%.

With VDCNLKYNP, the relative signal [%] in test [2] is 6.1%. RLRLNPADY (also: cyclic peptide, ring type and places not given here) had a relative signal [%] in test [1] of 37.3%. With GGGSLRFNPAD, the relative signal [%] in test [2] came out at 8.1%.

RLRGNPADY yielded a relative signal [%] in test [2] of 6.9%. The same measure, in the same setting: the value for GSLRYNP [GSLRYNP, linear mimotope] was 34.4%; that for WRLRWNPAD was 9%.

On to NPADYGN [NPADYGN, linear mimotope], for which, in test [2], the relative signal [%] was found to be 6.5%. The molecule ALRWNPADY displayed a relative signal [%] in test [2] of 6%. Still for that read-out and setting: under NPADYGI [NPADYGI, linear mimotope] stands 8%. In turn, VRLRWNPADYP (also: cyclic peptide, mode of cyclisation not given here) yielded a relative signal [%] in test [1] of 100%. Take HRLRWNPAD: the relative signal [%] in test [2] came to 6.7%.

On to RPNPADYGG, for which the relative signal [%] in test [2] came to 8.6%. Same read-out and setting: the value for LRINPAD [LRINPAD, linear mimotope] was 9.2%. With WIDVRLRGNPA (also: cyclic peptide, mode of cyclisation not given here), the relative signal [%] in test [1] worked out at 43.2%. In test [2], LRWNPADYHGI came in with a relative signal [%] of 7.2%. In turn, DVRLRWNPSDY displayed a relative signal [%] in test [2] of 6.8%. Molecule RLRVNPADY (also: cyclic peptide, ring type and places not given here) had a relative signal [%] in test [1] of 61.3%. The molecule DVRLRINPADY (also: cyclic peptide, mode of cyclisation not given here) displayed a relative signal [%] in test [1] of 31.4%. In the case of RIRWNPADY, in test [2], the relative signal [%] is 6.8%. NPADYRG (also: cyclic peptide, ring type and places not given here) [NPADYRG, cyclic mimotope] showed a relative signal [%] in test [1] of 27.4%.

Regarding QWVDCNLKFNP, the relative signal [%] in test [2] came out at 6.4%. DVRLRVNPADY (also: cyclic peptide, mode of cyclisation not given here) came in with a relative signal [%] in test [1] of 30.2%. Turning to RHNPADY [RHNPADY, linear mimotope], the relative signal [%] in test [2] was 8.9%. In test [2], SLRFNPADY returned a relative signal [%] of 6.5%. In turn, LRWNPADYPGI yielded a relative signal [%] in test [2] of 6.5%. In test [2], GGGSLRYNP gave a relative signal [%] of 7.1%.

In turn, DVRLRFNPADY (also: cyclic peptide, mode of cyclisation not given here) displayed a relative signal [%] in test [1] of 27.7%. RTNPADY [RTNPADY, linear mimotope] registered a relative signal [%] in test [2] of 7.2%. For the molecule LRRNPAD (also: cyclic peptide, mode of cyclisation not given here) [LRRNPAD, cyclic mimotope], the relative signal [%] in test [1] came out at 28.2%. In test [1], LRVNPADYG (also: cyclic peptide, mode of cyclisation not given here) showed a relative signal [%] of 45.1%. In test [2], VPLRWNPAD returned a relative signal [%] of 7.6%.

In the case of LRPNPADYG, the relative signal [%] in test [2] is 6.1%. In the case of WNPDDYGHV, the relative signal [%] in test [2] was 8.8%.

Regarding RLRINPADY (also: cyclic peptide, ring type and places not given here), the relative signal [%] in test [1] turned out to be 25.5%. The molecule RGNPADY [RGNPADY, linear mimotope] returned a relative signal [%] in test [2] of 6.9%. For the molecule RLNPADY (also: cyclic peptide, ring type and places not given here) [RLNPADY, cyclic mimotope], the relative signal [%] in test [1] amounted to 42.3%. In the case of NPDDYGH [NPDDYGH, linear mimotope], in test [2], the relative signal [%] stood at 7.7%. In turn, LRVNPADYG showed a relative signal [%] in test [2] of 31.6%. In test [2], YNLPWNP [YNL PWNP, linear mimotope] gave a relative signal [%] of 7.6%.

VDCNLKFNP: the relative signal [%] in test [2] was 6.8%. In test [2], HWNPADY [HWNPADY, linear mimotope] returned a relative signal [%] of 7.4%. Turning to IDVRLRFNPAD, in test [2], the relative signal [%] is 7.9%. With RINPADY (also: cyclic peptide, ring type and places not given here) [RINPADY, cyclic mimotope], the relative signal [%] in test [1] came to 28.9%. For RLRGNPADY (also: cyclic peptide, ring type and places not given here), in test [1], the relative signal [%] was determined as 32.7%.
